The record followed here is patent US20180155451A1 (published 2018).

For test [1], the target named is T1, FcgRIIaH (human, UniProt P12318 34-217).
T1 construct: extracellular domain; H131 allotype; also called FcγRIIa H; FcgRIIa type H; not shown: C-terminal His tag
T1 sequence (looked up): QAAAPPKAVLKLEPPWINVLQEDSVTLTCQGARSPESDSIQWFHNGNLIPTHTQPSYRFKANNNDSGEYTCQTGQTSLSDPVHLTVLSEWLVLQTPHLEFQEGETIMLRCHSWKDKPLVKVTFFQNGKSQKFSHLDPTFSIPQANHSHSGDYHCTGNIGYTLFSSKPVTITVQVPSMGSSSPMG
Description: SPR (Biacore); KD of H240-Kn120/H240-Hl068/L73-k0 divided by KD of the sample.

The target of test [2] is T2, FcgRIIIaV (human, UniProt P08637 17-208).
T2 construct: extracellular domain; V158 allotype; also called FcγRIIIa V; not shown: C-terminal His tag
T2 sequence (P08637 17-208 F176V limits assumed): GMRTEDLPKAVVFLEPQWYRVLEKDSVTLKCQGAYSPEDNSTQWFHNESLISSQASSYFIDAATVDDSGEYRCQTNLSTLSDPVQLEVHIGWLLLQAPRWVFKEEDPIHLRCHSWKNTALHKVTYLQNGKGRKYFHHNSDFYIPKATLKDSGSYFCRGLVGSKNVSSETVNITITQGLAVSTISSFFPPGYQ
Described as above.

The target of test [3] is T3, FcgRIIIaF (human, UniProt P08637 17-208).
T3 construct: extracellular domain; F158 allotype; also called FcγRIIIa F; not shown: C-terminal His tag
T3 sequence (P08637 17-208): as the sequence (P08637 17-208 F176V limits assumed) above, with V160F counted along it
The test is described as above.

The target in test [4] is T4, FcgRIIaR (human, UniProt P12318 34-217).
T4 construct: extracellular domain; R131 allotype; also called FcγRIIa R; FcgRIIa type R; not shown: C-terminal His tag
T4 sequence (looked up): T1 sequence (looked up) with H134R
Described as above.

Test [5] addresses T5, FcgRIIb (human, UniProt P31994 43-217).
T5 construct: extracellular domain; also called FcγRIIb; CD32B; not shown: C-terminal His tag
T5 sequence (looked up): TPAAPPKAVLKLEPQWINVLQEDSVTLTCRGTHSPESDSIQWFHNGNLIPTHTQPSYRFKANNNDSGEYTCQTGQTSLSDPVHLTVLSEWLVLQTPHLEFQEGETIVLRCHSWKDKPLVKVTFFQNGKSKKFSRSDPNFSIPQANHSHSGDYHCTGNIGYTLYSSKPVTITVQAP
The test is described as above.

For a further test, the target named is T6, FcgRIa (human, UniProt P12314 16-292).
T6 construct: extracellular domain; also called FcγRIa; FcγRI; not shown: C-terminal His tag
T6 sequence (P12314 16-292): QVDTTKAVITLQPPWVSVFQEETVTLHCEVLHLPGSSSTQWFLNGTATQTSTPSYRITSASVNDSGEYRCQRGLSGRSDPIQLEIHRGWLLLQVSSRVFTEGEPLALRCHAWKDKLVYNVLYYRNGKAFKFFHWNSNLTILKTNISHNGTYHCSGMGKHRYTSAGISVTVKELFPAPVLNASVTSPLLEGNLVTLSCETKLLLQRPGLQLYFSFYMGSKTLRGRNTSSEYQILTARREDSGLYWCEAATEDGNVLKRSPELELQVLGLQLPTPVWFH
Nature of the test: SPR (Biacore 4000), antibody captured on chip, FcgR as analyte; kd below the limit 5e-5 /s. The procedure: The variants described above were assessed for their binding to FcgR according to the method described in Reference Example 8.
Analysis of interaction between obj ective antibody and the FcγR was carried out using Biacore T100 (GE Healthcare), Biacore T200, Biacore A100, and Biacore 4000. HBS-EP+ (GE Healthcare) was used as the running buffer, and the measurement temperature was set to 25° C. Chips produced by immobilizing the antigen peptide by the amine coupling method to a Series S sensor Chip CM5 (GE Healthcare), chips produced by allowing preliminarily biotinylated antigen peptides to interact with and immobilize onto a Series S Sensor Chip SA (certified) (GE Healthcare), chips produced by immobilizing Protein L (ACTIGEN, BioVision) to Series S Sencor Chip CM5 (GE Healthcare), or chips produced by immobilizing Protein A/G (Thermo Scientific) to Series S Sencor Chip CM5 (GE Healthcare) were used. Antibodies of interest were captured onto these chips, and allowed to interact to each FcγR diluted with running buffer. To regenerate and repeatedly use the chip, the antibodies captured onto the chip were washed off by reacting 10 mM glycine-HCl, pH 1.5.

Test [6] addresses T1, FcgRIIaH. Nature of the test: SPR (Biacore), antibody captured on chip, FcgR as analyte.
Test [7] deals with T2, FcgRIIIaV. The test is described as above.
The target of test [8] is T3, FcgRIIIaF. The description is as above.
The target in test [9] is T4, FcgRIIaR. The description is as above.
Test [10] addresses T5, FcgRIIb. The test is described as above.

Where a chain is given by its changes, count along the chain named. In names and notes the source's numbering stands. Where only a bound is given, the exact number is not on record here.

B1: H240-Kn120/H240-Hl073/L73-k0 (antibody, human IgG1, kappa)
heavy 1: QDQLVQSGAEVKKPGASVKVSCKASGFNIKDTYIQWVRQAPGQGLEWMGRIDPLRKQTKYREKFEGRVTITADTSTNTAYMELSSLRSEDTAVYYCVRSGREFDYWGQGTLVTVSSASTKGPSVFPLAPSSKSTSGGTAALGCLVKDYFPEPVTVSWNSGALTSGVHTFPAVLQSSGLYSLSSVVTVPSSSLGTQTYICNVNHKPSNTKVDKKVEPKSCDKTHTCPPCPAPEYYWGPMVFLFPPKPKDTLMISRTPEVTCVVVDVSDEDPEVKFNWYVDGVEVHNAKTKPREEQYNATYRVVSVLTVLHQDWLNGKEYKCKVSNKDLPAPIEKTISKAKGQPREPQVCTLPPSRDELTKNQVSLWCLVKGFYPSDIAVEWESNGQPENNYKTTPPVLDSDGSFFLYSKLTVDKSRWQQGNVFSCSVMHEALHNHYTQKSLSLSP
heavy 2: QDQLVQSGAEVKKPGASVKVSCKASGFNIKDTYIQWVRQAPGQGLEWMGRIDPLRKQTKYREKFEGRVTITADTSTNTAYMELSSLRSEDTAVYYCVRSGREFDYWGQGTLVTVSSASTKGPSVFPLAPSSKSTSGGTAALGCLVKDYFPEPVTVSWNSGALTSGVHTFPAVLQSSGLYSLSSVVTVPSSSLGTQTYICNVNHKPSNTKVDKKVEPKSCDKTHTCPPCPAPELLSGPSVFLFPPKPKDTLMISRTPEVTCVVVDVSHEEPEVKFNWYVDGVEVHNAKTKPREEQYNSTYRVVSVLTVLHQDWLNGKEYKCKVSNDALPKPIEETISKAKGQPREPQVYTLPPSRCELTKNQVSLSCAVKGFYPSDIAVEWESNGQPENNYKTTPPVLDSDGSFFLVSKLTVDKSRWQQGNVFSCSVMHEALHNHYTQKSLSLSP
light: DIQMTQSPSSLSASVGDRVTITCRASQDIHKYIAWYQQKPGQAPRLLIQYTSTLQPGVPSRFSGSGSGTDYTFTISSLQPEDIATYYCLQYEQLRTFGGGTKVEIKRTVAAPSVFIFPPSDEQLKSGTASVVCLLNNFYPREAKVQWKVDNALQSGNSQESVTEQDSKDSTYSLSSTLTLSKADYEKHKVYACEVTHQGLSSPVTKSFNRGEC
notes: Heterodimerized anti-epiregulin antibody; G236S in the Hl068 chain; also called H240-Kn120/H240-HI073/L73-k0
Take B1: the “Relative KD” value with FcgRIIaH [1] stood at 2; with FcgRIIIaV [2] it was 0.2; with FcgRIIIaF [3], 0.3; with FcgRIIaR [4], 1.3; in the test with FcgRIIb [5], 0.7. In addition, the Kd with FcgRIa was under 0.028 nM; with FcgRIIaH [6] it was 21 nM; with FcgRIIIaV [7] it was 1.8 nM; in the test with FcgRIIIaF [8], 8.2 nM; with FcgRIIaR [9], 15 nM; with FcgRIIb [10], 210 nM.
